Laboratory results: publication PMC5017731

Molecular target: cardiac ryanodine receptor (RyR2) (rat (endogenous in neonatal ventricular cardiomyocytes)) (UniProt B0LPN4)
UniProt B0LPN4, sequence (B0LPN4 whole entry): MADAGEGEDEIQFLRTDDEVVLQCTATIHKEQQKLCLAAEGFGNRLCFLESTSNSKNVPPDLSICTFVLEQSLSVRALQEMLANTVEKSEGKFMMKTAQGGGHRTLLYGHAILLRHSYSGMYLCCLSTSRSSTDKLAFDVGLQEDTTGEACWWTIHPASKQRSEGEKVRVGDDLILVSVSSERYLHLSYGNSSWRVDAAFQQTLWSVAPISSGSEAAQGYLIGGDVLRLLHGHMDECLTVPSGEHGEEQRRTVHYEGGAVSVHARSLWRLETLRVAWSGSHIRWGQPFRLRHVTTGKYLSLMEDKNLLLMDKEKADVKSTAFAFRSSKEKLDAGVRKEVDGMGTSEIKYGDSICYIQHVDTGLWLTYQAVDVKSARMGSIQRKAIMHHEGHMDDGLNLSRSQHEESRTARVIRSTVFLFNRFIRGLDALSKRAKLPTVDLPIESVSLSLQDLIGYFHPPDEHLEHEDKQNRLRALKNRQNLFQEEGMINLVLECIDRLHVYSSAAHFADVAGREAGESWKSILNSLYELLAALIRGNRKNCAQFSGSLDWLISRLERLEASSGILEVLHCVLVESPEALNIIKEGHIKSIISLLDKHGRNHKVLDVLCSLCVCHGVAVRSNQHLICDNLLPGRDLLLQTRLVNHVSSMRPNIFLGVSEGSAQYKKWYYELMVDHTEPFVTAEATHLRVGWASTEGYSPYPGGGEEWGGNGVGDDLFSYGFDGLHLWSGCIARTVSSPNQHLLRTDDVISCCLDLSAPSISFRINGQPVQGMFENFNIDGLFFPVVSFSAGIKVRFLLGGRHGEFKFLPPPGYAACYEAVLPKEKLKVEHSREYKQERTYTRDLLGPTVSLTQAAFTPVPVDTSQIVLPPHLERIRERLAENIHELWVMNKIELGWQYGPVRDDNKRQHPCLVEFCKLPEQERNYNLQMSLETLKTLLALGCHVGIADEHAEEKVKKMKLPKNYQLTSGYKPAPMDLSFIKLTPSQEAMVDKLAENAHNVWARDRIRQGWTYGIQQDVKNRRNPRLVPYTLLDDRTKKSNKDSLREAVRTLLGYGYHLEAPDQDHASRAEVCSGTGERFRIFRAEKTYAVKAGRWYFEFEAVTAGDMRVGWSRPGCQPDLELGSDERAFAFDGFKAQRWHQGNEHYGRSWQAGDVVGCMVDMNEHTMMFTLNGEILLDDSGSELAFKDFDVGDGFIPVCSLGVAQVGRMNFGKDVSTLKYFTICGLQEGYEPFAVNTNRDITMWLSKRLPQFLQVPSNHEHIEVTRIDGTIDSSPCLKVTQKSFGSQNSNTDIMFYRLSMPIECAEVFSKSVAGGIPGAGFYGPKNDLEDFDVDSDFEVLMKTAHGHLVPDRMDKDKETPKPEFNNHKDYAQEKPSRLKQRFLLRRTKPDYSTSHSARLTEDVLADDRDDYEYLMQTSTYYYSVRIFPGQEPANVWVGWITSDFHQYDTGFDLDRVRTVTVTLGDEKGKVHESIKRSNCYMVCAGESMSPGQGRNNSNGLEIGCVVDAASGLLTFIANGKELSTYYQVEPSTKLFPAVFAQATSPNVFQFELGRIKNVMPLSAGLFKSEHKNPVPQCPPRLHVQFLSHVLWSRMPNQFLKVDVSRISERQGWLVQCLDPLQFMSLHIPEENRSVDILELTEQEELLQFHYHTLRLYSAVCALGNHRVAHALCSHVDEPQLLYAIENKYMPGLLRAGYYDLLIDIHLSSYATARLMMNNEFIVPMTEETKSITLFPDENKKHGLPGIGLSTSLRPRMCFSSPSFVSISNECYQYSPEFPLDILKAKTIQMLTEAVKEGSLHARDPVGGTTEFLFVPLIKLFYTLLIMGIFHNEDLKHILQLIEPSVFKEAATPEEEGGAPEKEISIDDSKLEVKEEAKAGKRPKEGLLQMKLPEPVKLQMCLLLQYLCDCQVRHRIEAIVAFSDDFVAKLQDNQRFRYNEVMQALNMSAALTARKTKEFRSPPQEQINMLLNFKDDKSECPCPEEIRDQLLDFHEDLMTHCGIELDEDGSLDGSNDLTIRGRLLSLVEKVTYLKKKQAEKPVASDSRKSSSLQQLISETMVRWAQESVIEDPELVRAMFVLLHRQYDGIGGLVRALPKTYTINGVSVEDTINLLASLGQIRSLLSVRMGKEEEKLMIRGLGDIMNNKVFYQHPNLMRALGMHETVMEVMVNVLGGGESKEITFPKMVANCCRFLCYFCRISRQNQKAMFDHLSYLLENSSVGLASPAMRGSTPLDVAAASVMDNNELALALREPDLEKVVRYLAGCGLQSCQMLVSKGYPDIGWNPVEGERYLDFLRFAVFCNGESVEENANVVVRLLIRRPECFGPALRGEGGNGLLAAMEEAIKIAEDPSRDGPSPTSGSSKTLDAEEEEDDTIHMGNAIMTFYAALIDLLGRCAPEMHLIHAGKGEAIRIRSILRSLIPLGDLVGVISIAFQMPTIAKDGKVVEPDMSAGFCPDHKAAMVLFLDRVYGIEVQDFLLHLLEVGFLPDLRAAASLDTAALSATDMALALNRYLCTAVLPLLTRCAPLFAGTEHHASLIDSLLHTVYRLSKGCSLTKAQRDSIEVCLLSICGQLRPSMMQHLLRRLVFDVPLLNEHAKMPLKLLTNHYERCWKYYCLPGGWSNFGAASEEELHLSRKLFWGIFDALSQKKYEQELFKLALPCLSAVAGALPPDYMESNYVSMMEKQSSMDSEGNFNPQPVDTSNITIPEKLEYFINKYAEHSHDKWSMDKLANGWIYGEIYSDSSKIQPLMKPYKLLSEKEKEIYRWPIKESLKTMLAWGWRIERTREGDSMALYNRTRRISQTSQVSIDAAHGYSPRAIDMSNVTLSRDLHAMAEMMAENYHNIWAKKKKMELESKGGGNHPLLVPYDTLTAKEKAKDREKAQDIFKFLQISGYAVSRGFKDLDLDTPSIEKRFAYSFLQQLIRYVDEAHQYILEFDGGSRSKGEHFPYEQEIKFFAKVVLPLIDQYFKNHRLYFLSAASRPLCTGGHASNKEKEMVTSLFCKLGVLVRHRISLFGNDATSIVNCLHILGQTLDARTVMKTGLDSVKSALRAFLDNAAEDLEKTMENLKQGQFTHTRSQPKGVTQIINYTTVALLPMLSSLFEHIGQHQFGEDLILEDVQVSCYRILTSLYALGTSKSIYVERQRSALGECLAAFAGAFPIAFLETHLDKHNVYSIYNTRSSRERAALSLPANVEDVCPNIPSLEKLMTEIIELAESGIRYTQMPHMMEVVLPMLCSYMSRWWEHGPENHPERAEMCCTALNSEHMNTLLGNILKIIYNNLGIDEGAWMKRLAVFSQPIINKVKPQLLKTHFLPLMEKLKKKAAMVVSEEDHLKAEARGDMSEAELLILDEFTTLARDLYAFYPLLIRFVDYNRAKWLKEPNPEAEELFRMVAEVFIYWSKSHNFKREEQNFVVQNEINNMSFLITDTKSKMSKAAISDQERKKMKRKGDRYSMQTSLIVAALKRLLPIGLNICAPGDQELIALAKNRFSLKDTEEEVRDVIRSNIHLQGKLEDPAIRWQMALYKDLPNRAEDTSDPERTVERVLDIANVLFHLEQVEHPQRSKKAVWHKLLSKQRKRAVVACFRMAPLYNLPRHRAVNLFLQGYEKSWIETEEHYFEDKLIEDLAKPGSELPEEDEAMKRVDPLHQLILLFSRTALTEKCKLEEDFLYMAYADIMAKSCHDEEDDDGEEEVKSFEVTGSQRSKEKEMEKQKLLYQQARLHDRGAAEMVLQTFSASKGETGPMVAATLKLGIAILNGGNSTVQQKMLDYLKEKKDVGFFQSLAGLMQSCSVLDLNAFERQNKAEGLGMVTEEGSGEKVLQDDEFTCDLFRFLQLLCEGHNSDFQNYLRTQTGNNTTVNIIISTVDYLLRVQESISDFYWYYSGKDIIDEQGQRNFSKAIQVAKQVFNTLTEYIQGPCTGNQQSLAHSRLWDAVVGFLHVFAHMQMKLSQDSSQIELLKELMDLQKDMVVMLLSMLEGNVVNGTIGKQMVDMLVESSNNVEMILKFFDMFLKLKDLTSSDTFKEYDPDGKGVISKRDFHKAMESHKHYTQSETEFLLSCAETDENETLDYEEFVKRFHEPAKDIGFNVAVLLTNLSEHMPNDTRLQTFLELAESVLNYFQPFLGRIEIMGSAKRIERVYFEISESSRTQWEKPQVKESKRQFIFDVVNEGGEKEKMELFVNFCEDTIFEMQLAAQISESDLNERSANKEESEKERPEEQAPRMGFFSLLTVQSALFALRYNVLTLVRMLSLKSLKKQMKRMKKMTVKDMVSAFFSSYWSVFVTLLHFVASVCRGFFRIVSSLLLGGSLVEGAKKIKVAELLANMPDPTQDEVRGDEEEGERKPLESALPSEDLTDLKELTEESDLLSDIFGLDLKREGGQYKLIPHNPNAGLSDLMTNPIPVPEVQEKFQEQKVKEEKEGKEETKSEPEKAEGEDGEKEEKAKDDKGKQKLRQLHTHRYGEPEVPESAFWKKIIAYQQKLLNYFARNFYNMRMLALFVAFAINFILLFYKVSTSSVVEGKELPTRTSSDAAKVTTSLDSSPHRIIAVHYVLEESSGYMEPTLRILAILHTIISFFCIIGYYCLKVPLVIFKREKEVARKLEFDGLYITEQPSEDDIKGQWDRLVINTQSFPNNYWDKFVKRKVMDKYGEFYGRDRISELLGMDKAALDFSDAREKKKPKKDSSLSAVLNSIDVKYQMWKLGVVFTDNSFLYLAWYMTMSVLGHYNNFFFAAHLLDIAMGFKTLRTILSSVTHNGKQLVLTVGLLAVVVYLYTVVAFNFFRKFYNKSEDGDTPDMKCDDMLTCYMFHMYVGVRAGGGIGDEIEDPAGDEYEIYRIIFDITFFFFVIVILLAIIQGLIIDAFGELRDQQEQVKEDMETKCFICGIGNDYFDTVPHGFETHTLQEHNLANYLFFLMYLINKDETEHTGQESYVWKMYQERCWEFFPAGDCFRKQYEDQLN

B1: C-terminal half of GSTM2 (GSTM2C) (domain or fragment)
chain: PMTLGYWNIRGLAHSIRLLLEYTDSSYEEKKYTMGDAPDYDRSQWLNEKFKLGLDFPNLPYLIDGTHKITQSNAILRYIARKHNLCGESEKEQIREDILENQFMDSRMQLAKLCYDPDFEKLKPEYLQALPEMLKLYSQFLGKQPWFLGDKITFVDFIAYDVLERNQVFEPSCLDAFPNLKDFISRFEGLEKISAYMKSSRFLPRPVFTKMAVWGNK
  field-stimulated myocyte shortening after 2 h with 5, 10 and 15 uM GSTM2C, as percent of control (3.0%, 10.9% and 42.8%); significant only at 15 uM: 42.8 % of control
